Test results taken from article PMC7263589, “Integration of phage and yeast display platforms: A reliable and cost effective approach for binning of peptides as displayed on-phage” (PLoS ONE, 2020).

What was measured:
IL-23 binding to IL-23R = experiment: Competition SPR: IL-23 binding to captured IL-23R-Fc-AVI in the presence of peptide; conditions: concentration tested 0.1 μM; 20 nM IL-23, IL-23R-Fc-AVI on Protein-A, 30 s injection, 1% BSA buffer; n = 1
Protocol: SPR (Biacore T200, GE Healthcare) was used to determine binding constants of the peptides against IL-23 and their competitiveness to IL-23R. All SPR experiments were performed at 25°C with flow rate of 50 μl/min. Assay buffer used in direct binding experiment was 10 mM HEPES pH 7.5, 150 mM NaCl, 0.005% P20, and 3% DMSO. Assay buffer used in competition experiment was 10 mM HEPES pH 7.5, 150 mM NaCl, 0.005% P20, and 1% BSA. All peptides were reconstituted first in DMSO as 10 mM stocks and then diluted into assay buffer. The proteins used in direct binding and competition SPR are described in S1 Table in S1 File. For direct binding of peptides against IL-23, 2000–9000 RU of IL-23-AVI was captured to streptavidin sensor chips (GE Healthcare, Series S Sensor Chip SA, BR-1005-31). Dilution series with 3-fold increment were prepared for each peptide. Initially, all peptides were tested up to 30 μM. […] IL-23 at 20 nM without peptide, “IL-23 only”, was used as control to quantify IL-23 binding without blockage; while “cold” IL-23R was used as a positive control for blockage.
The design of competition SPR was based on a knockdown assay (Fig 5A). […] Response levels of IL-23 plus peptide were measured post injection (Fig 5B) to avoid possible bulk RI difference between analyte and running buffer. […]

IL-23 = biological target: T1, IL-23 (Homo sapiens, UniProt P29460+Q9NPF7); experiment: SPR direct binding to captured IL-23-AVI (Biacore T200); conditions: IL-23-AVI captured on streptavidin chip, 25°C, 1:1 binding model, n = 1, 23–447 an estimate
T1 construct: made in house
T1 sequence (Q9NPF7 20-189): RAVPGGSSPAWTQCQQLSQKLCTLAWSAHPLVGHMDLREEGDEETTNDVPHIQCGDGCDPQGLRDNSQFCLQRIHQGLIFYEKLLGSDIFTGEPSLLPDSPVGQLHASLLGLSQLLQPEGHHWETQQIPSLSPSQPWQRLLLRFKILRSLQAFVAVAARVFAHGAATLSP
T1 sequence (P29460 23-328): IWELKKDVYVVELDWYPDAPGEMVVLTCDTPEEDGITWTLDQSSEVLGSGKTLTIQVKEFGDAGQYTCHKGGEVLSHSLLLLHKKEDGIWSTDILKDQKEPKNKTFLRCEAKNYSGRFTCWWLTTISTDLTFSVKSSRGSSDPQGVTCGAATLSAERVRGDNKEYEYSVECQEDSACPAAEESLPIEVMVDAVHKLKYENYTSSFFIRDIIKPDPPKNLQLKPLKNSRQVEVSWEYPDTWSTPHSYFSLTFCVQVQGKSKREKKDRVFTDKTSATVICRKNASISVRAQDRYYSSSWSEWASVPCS
Protocol: SPR (Biacore T200, GE Healthcare) was used to determine binding constants of the peptides against IL-23 and their competitiveness to IL-23R. All SPR experiments were performed at 25°C with flow rate of 50 μl/min. Assay buffer used in direct binding experiment was 10 mM HEPES pH 7.5, 150 mM NaCl, 0.005% P20, and 3% DMSO. Assay buffer used in competition experiment was 10 mM HEPES pH 7.5, 150 mM NaCl, 0.005% P20, and 1% BSA. All peptides were reconstituted first in DMSO as 10 mM stocks and then diluted into assay buffer. The proteins used in direct binding and competition SPR are described in S1 Table in S1 File. For direct binding of peptides against IL-23, 2000–9000 RU of IL-23-AVI was captured to streptavidin sensor chips (GE Healthcare, Series S Sensor Chip SA, BR-1005-31). Dilution series with 3-fold increment were prepared for each peptide. Initially, all peptides were tested up to 30 μM. Concentration range for some were then lowered accordingly based on affinity or nuisance behavior at high concentrations. SPR “multi-cycle” type was used for peptides 23–644, 23–437, 23–441, 23–446, and 23–447. Each cycle consisted of 30s of analyte injection and then 60s of buffer flow to monitor dissociation. “Single cycle kinetics” (SCK) type was used for 23–652 due to their long dissociation half-lives. Each SCK cycle consisted of five 60s injections of sample in increasing concentration with a final 600s of dissociation. To study IL-23 and IL-23R interaction, 200–1000 RU of IL-23-AVI and IL-23R-Fc-AVI were captured to streptavidin sensor chip. Dilution series with 3-fold increment of IL-23R-FLAG-HIS and IL-23-HIS were run in SCK cycle type as described above except the final dissociation time were 60-300s. Sensorgrams from the entire titration series for each sample were fitted globally to extract binding kinetics and affinity using Biacore T200 Evaluation Software 2.0 (GE Healthcare) according to a 1:1 binding model. To identify IL-23 binders that can block receptor binding, a competition SPR was established. In each SPR cycle, fresh IL-23R was capture (<1000 RU) by injecting 10 μg/ml of IL-23R-Fc-AVI to a Protein-A flow cell at 10 μl/min flow rate for 30s. Analyte consisted of a mixture of 20 nM of IL-23 protein and a single concentration of peptide was then injected for 30s at 50 μl/min to observe IL-23 binding. Finally, the Protein-A surface was regenerated by 10 mM Glycine pH 1.5 for 30s at 30 μl/min. IL-23 at 20 nM without peptide, “IL-23 only”, was used as control to quantify IL-23 binding without blockage; while “cold” IL-23R was used as a positive control for blockage.

B1: IL-23R: IL23R ECD (aa 1-353) with C-terminal Flag and HIS tags produced in HEK293 cells; positive control for blockage (protein)
chain: GITNINCSGHIWVEPATIFKMGMNISIYCQAAIKNCQPRKLHFYKNGIKERFQITRINKTTARLWYKNFLEPHASMYCTAECPKHFQETLICGKDISSGYPPDIPDEVTCVIYEYSGNMTCTWNAGKLTYIDTKYVVHVKSLETEEEQQYLTSSYINISTDSLQGGKKYLVWVQAANALGMEESKQLQIHLDDIVIPSAAVISRAETINATVPKTIIYWDSQTTIEKVSCEMRYKATTNQTWNVKEFDTNFTYVQQSEFYLEPNIKYVFQVRCQETGKRYWQPWSSLFFHKTPETVPQVTSKAFQHDTWNSGLTVASISTGHLTSDNRGDIGLLLGMIVFAVMLSILSLIGIFNRSFRTGIKRRILLLIPKWLYEDIPNMKNSNVVKMLQENSELMNNNSSEQVLYVDPMITEIKEIFIPEHKPTDYKKENTGPLETRDYPQNSLFDNTTVVYIPDLNTGYKPQISNFLPEGSHLSNNNEITSLTLKPPVDSLDSGNNPRLQKHPNFAFSVSSVNSLSNTIFLGELSLILNQGECSSPDIQNSVEEETTMLLENDSPSETIPEQTLLPDEFVSCLGIVNEELPSINTYFPQNILESHFNRISLLEK
modifications: fluorescent label (dye and site not stated)
IL-23 binding to IL-23R
  Competition SPR %Inhibition: 98.0%
IL-23
  kd: 0.00151 s⁻¹
IL-23; 50 μl/min, 10 mM HEPES pH 7.5, 150 mM NaCl, 0.005% P20, 3% DMSO, multi-cycle (single cycle kinetics for 23–652 and IL-23R)
  ka: 170000 M⁻¹ s⁻¹
